Numbering of substitutions follows the chain as printed. Names and notes keep the numbering of the source. Read-outs that look alike come from different tables or passages of the source.
B1: M145A: Ala-mutant in the transmembrane region of the M1 mAChR (protein)
chain: MNTSAPPAVSPNITVLAPGKGPWQVAFIGITTGLLSLATVTGNLLVLISFKVNTELKTVNNYFLLSLACADLIIGTFSMNLYTTYLLMGHWALGTLACDLWLALDYVASNASVMNLLLISFDRYFSVTRPLSYRAKRTPRRAALAIGLAWLVSFVLWAPAILFWQYLVGERTVLAGQCYIQFLSQPIITFGTAMAAFYLPVTVMCTLYWRIYRETENRARELAALQGSETPGKGGGSSSSSERSQPGAEGSPETPPGRCCRCCRAPRLLQAYSWKEEEEEDEGSMESLTSSEGEEPGSEVVIKMPMVDPEAQAPTKQPPRSSPNTVKRPTKKGRDRAGKGQKPRGKEQLAKRKTFSLVKEKKAARTLSAILLAFILTWTPYNIMVLVSTFCKDCVPETLWELGYWLCYVNSTINPMCYALCNKAFRDTFRLLLLCRWDKRRWRKIPKRPGSVHRTPSRQC
B2: L65G: M1 mAChR mutant L65G recovered by randomisation of the codon for position 65 (protein)
chain: B1 chain with L65G, A145M
B3: M384/27: Sequencing established that M384/27 is M384C (M1 mAChR) (protein, UniProt P11229 1-460, looked up, variant M384C)
Muscarinic acetylcholine …: B1 chain with A145M, M384C
B4: L65A + M145A: M1 mAChR double mutant (protein)
chain: B1 chain with L65A
B5: I119A: Ala-mutant in the transmembrane region of the M1 mAChR (protein)
chain: B1 chain with I119A, A145M
B6: M384/40: Sequencing established that M384/40 is M384G (M1 mAChR) (protein, UniProt P11229 1-460, looked up, variant M384G)
Muscarinic acetylcholine …: B1 chain with A145M, M384G
B7: L65A + L151A: M1 mAChR double mutant (protein)
chain: B1 chain with L65A, A145M, L151A
B8: I383/21: Sequencing established that I383/21 is I383G (M1 mAChR) (protein, UniProt P11229 1-460, looked up, variant I383G)
Muscarinic acetylcholine …: B1 chain with A145M, I383G
B9: C69A: Ala-mutant in the transmembrane region of the M1 mAChR (protein)
chain: B1 chain with C69A, A145M
B10: L151A: Ala-mutant in the transmembrane region of the M1 mAChR (protein)
chain: B1 chain with A145M, L151A

Test system: M1 mAChR
Assay type: physicochemical
Details: for stability relative to wild-type (retention of bound 3H-NMS), in words: BOG or DDM; for % 3H-NMS retained BOG / % loss/wt / mean % retained: 0.82% BOG, 4° C., 3 h; for % 3H-NMS retained BOG: whole E. coli BL21 cells, single culture; for % loss/wt: % loss relative to wild-type control; for mean % retained: mean of the cultures
Method: This concentration was determined by analysing wild-type M1 mAChRs expressed in the inner cell membranes of intact E. Coli strain BL21 cells. The cells were pre-labelled with the radiolabelled antagonist 3H—N-methyl scopolamine and resuspended to a pre-determined cell density (Absorbance at 600 nm=2.0) in a chosen buffer (in this case 50 mM sodium phosphate, 1 mM EDTA, pH 7.5). […] The wild-type M1 mAChRs were titrated by the addition of increasing concentrations of beta octyl glucoside dissolved in the same buffer for different times (e.g. 1 h, 2 h, 3 h, 5 h, 15 h) and at different temperatures (e.g. 4° C., 15° C.). The loss of specifically-bound radioligand was then measured after recovering the cells by centrifugation (15000×g, 15 min.). In the example, the centrifugation step was performed on duplicate 1 ml aliquots of the cells. The experiment was repeated 3 times. […] It will be appreciated that the cell density, detergent concentration and other parameters of the assay may be varied to adjust the loss of activity as appropriate.
(a) A state of in-situ destabilisation of a particular membrane protein in a particular cell membrane as a result of the addition of a particular concentration of a particular detergent, can be defined by the loss of the characteristic specific ligand binding activity of the membrane protein for a particular ligand of interest in the presence of a defined concentration of a particular detergent molecule or other solubilising agent.
A preferred version of the assay is destabilisation of a membrane protein-ligand complex in a detergent-enriched membrane. The membrane protein, either in a membrane preparation, or in intact cells in-vivo or ex-vivo, is pre-incubated with a labelled version of the ligand, the label, for instance, being a radioactive label, or a fluorescent label, and the binding step preferably being allowed to proceed to equilibrium, defined as the achievement of a time-invariant level of binding. To define membrane protein-independent, or non-specific, binding the binding step is performed with the addition of a second non-labelled ligand, called the competing ligand, having an appropriate membrane protein-specific pharmacology, at a concentration sufficient fully to occupy the binding sites of the membrane protein and thereby exclude the binding of the labelled ligand. The difference between the binding of the labelled ligand in the absence and presence of the competing ligand is defined as the specific binding of the labelled ligand. Measurement of binding requires a suitable method for separating and measuring bound ligand. Characteristically, this involves centrifugation of intact cells or membranes for a time and at a centrifugal force adequate to pellet them (for instance, 15000×g for 15 min in the case of E. coli cells, or 100,000×g for plasma membrane preparations), or filtration of a membrane suspension e.g. through a suitable filter paper such as glass fibre paper e.g. GF-B or GF-C followed by counting of radioactivity. Alternatively, it might involve the measurement of an optical signal such as enhancement of fluorescence emission in the case of fluorescent ligands.
To perform the in-situ destabilisation assay, a pre-determined concentration of the detergent or other destabilising agent of choice is mixed with a membrane or cell suspension containing the pre-labelled membrane protein in an appropriate buffer composition at a particular temperature and for a particular time, determined as described below.

Molecule	stability relative to wild-type (retention of bound 3H-NMS), in words	% loss/wt	mean % retained	further results
B1	smaller enhancements	–	–	–
B2	–	1.06	44%	% 3H-NMS retained BOG (listed as L65 G 1): 49%; % 3H-NMS retained BOG (listed as L65 G 2): 39%
B3	–	0.6	68%	% 3H-NMS retained BOG (listed as M384/27 1): 63%; % 3H-NMS retained BOG (listed as M384/27 2): 73%
B4	–	0.34	82%	% 3H-NMS retained BOG (listed as L65A + M145A 1): 91%; % 3H-NMS retained BOG (listed as L65A + M145A 2): 73%
B5	reductions	–	–	–
B6	–	0.44	76.5%	% 3H-NMS retained BOG (listed as M384/40 1): 71%; % 3H-NMS retained BOG (listed as M384/40 2): 82%
B7	–	0.51	73%	% 3H-NMS retained BOG (listed as L65A + L151A 1): 70%; % 3H-NMS retained BOG (listed as L65A + L151A 2): 76%
B8	–	0.64	66%	% 3H-NMS retained BOG (listed as I383/21 1): 70%; % 3H-NMS retained BOG (listed as I383/21 2): 62%
B9	reductions	–	–	–
B10	smaller enhancements	–	–	–
